First the molecules themselves.
B1: C-terminally ypet-tagged full-length talin WT [mouse] / paxillin (endogenous, fibroblasts) [mouse (endogenous in talin^1/2dko fibroblasts)] (parent complex)
chain 1: MVALSLKISIGNVVKTMQFEPSTMVYDACRMIRERIPEALAGPPNDFGLFLSDDDPKKGIWLEAGKALDYYMLRNGDTMEYRKKQRPLKIRMLDGTVKTIMVDDSKTVTDMLMTICARIGITNHDEYSLVRELMEEKKDEGTGTLRKDKTLLRDEKKMEKLKQKLHTDDELNWLDHGRTLREQGVEEHETLLLRRKFFYSDQNVDSRDPVQLNLLYVQARDDILNGSHPVSFDKACEFAGFQCQIQFGPHNEQKHKAGFLDLKDFLPKEYVKQKGERKIFQAHKNCGQMSEIEAKVRYVKLARSLKTYGVSFFLVKEKMKGKNKLVPRLLGITKECVMRVDEKTKEVIQEWSLTNIKRWAASPKSFTLDFGDYQDGYYSVQTTEGEQIAQLIAGYIDIILKKKKSKDHFGLEGDEESTMLEDSVSPKKSTVLQQQYNRVGKVEHGSVALPAIMRSGASGPENFQVGSMPPAQQQITSGQMHRGHMPPLTSAQQALTGTINSSMQAVQAAQATLDDFETLPPLGQDAASKAWRKNKMDESKHEIHSQVDAITAGTASVVNLTAGDPAETDYTAVGCAVTTISSNLTEMSRGVKLLAALLEDEGGNGRPLLQAAKGLAGAVSELLRSAQPASAEPRQNLLQAAGNVGQASGELLQQIGESDTDPHFQDVLMQLAKAVASAAAALVLKAKSVAQRTEDSGLQTQVIAAATQCALSTSQLVACTKVVAPTISSPVCQEQLVEAGRLVAKAVEGCVSASQAATEDGQLLRGVGAAATAVTQALNELLQHVKAHATGAGPAGRYDQATDTILTVTENIFSSMGDAGEMVRQARILAQATSDLVNAIKADAEGESDLENSRKLLSAAKILADATAKMVEAAKGAAAHPDSEEQQQRLREAAEGLRMATNAAAQNAIKKKLVQRLEHAAKQAAASATQTIAAAQHAASAPKASAGPQPLLVQSCKAVAEQIPLLVQGVRGSQAQPDSPSAQLALIAASQSFLQPGGKMVAAAKASVPTIQDQASAMQLSQCAKNLGTALAELRTAAQKAQEACGPLEMDSALSVVQNLEKDLQEIKAAARDGKLKPLPGETMEKCTQDLGNSTKAVSSAIAKLLGEIAQGNENYAGIAARDVAGGLRSLAQAARGVAALTSDPAVQAIVLDTASDVLDKASSLIEEAKKASGHPGDPESQQRLAQVAKAVTQALNRCVSCLPGQRDVDNALRAVGDASKRLLSDSLPPSTGTFQEAQSRLNEAAAGLNQAATELVQASRGTPQDLARASGRFGQDFSTFLEAGVEMAGQAPSQEDRAQVVSNLKGISMSSSKLLLAAKALSTDPASPNLKSQLAAAARAVTDSINQLITMCTQQAPGQKECDNALRQLETVRELLENPVQPINDMSYFGCLDSVMENSKVLGEAMTGISQNAKNGNLPEFGDAIATASKALCGFTEAAAQAAYLVGVSDPNSQAGQQGLVEPTQFARANQAIQMACQSLGEPGCTQAQVLSAATIVAKHTSALCNSCRLASARTANPTAKRQFVQSAKEVANSTANLVKTIKALDGDFTEENRAQCRAATAPLLEAVDNLSAFASNPEFSSVPAQISPEGRAAMEPIVISAKTMLESAGGLIQTARALAVNPRDPPRWSVLAGHSRTVSDSIKKLITSMRDKAPGQLECETAIAALNSCLRDLDQASLAAVSQQLAPREGISQEALHTQMLTAVQEISHLIEPLASAARAEASQLGHKVSQMAQYFEPLTLAAVGAASKTLSHPQQMALLDQTKTLAESALQLLYTAKEAGGNPKQAAHTQEALEEAVQMMTEAVEDLTTTLNEAASAAGVVGGMVDSITQAINQLDEGPMGDPEGSFVDYQTTMVRTAKAIAVTVQEMVTKSNTSPEELGPLANQLTSDYGRLASQAKPAAVAAENEEIGAHIKHRVQELGHGCSALVTKAGALQCSPSDVYTKKELIECARRVSEKVSHVLAALQAGNRGTQACITAASAVSGIIADLDTTIMFATAGTLNREGAETFADHREGILKTAKVLVEDTKVLVQNAAGSQEKLAQAAQSSVATITRLADVVKLGAASLGAEDPETQVVLINAVKDVAKALGDLISATKAAAGKVGDDPAVWQLKNSAKVMVTNVTSLLKTVKAVEDEATKGTRALEATTEHIRQELAVFCSPEPPAKTSTPEDFIRMTKGITMATAKAVAAGNSCRQEDVIATANLSRRAIADMLRACKEAAFHPEVAPDVRLRALHYGRECANGYLELLDHVLLTLQKPNPDLKQQLTGHSKRVAGSVTELIQAAEAMKGTEWVDPEDPTVIAENELLGAAAAIEAAAKKLEQLKPRAKPKEADESLNFEEQILEAAKSIAAATSALVKAASAAQRELVAQGKVGAIPANALDDGQWSQGLISAARMVAAATNNLCEAANAAVQGHASQEKLISSAKQVAASTAQLLVACKVKADQDSEAMKRLQAAGNAVKRASDNLVKAAQKAAAFEDQENETVVVKEKMVGGIAQIIAAQEEMLRKERELEEARKKLAQIRQQQYKFLPSELRDEH
chain 2: not shown

The variants in the test derive from B1. Nature of the test: anti-GFP immunoprecipitation, western blot quantification; talin1/2dKO fibroblasts, N = 3; parent: 1; read off a plot. Background: A western blot detects proteins with antibodies after separation by electrophoresis.
With chain 1 T2126E, chain 1 K2133E, the ratio to parent is about 0.69.
With chain 1 A680E, chain 1 K687E the figure was about 0.44.
To chain 1 A680E, chain 1 K687E, chain 1 T2126E, chain 1 K2133E belongs about 0.28.
